What was measured:
[1] = target: T1, recombinant pre-S region protein of the HBV large surface protein (LHBS) (Hepatitis B virus, strain ; …, UniProt P03141); experiment: ELISA; antigen protein or peptide coated on the plate (0.1 ng/uL, or 10-fold serial dilutions), 4 °C overnight; purified monoclonal antibody added (serial dilutions or 1:2000 in PBST); PBST pH 7.4 washes; anti-mouse IgG-HRP, chemiluminescence read-out; settings: both partners purified
T1 construct: also called pre-S region E. coli recombinant protein; source: E. coli BL21 (pET21b, IPTG 0.2 mM), purified
T1 sequence (P03141 whole entry, looked up): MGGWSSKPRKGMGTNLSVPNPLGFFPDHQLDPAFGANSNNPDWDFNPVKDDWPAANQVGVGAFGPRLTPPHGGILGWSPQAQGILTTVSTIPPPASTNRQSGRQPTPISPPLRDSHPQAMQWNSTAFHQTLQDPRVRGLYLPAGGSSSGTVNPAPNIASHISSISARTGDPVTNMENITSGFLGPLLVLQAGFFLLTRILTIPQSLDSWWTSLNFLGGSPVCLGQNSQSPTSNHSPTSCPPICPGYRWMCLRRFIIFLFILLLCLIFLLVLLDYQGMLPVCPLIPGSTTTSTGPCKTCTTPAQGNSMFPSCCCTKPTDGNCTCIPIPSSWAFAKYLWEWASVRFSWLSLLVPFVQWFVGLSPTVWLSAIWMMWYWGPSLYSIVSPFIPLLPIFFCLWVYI

[2] = target: T2, pre-S1 oligopeptide of amino acids 25-38 (Hepatitis B virus, strain  …); experiment: as above; settings: both partners purified
T2 construct: pre-S1 region of the hepatitis B virus large surface protein, amino acids 25-38; One of several oligopeptides spanning pre-S1 21-47; also called peptide containing amino acids 25–38; source: synthetic peptide
T2 chain: FPDHQLDPAFGANS

[3] = target: T3, large HBV surface protein (LHBS), full-length, expressed in 293T cells (Hepatitis B virus, strain ; …, UniProt P03141); experiment: ELISA; lysates of 293T cells transfected with LHBS genes with partial deletions, tested for recognition by the monoclonal antibody; settings: one partner purified
T3 construct: hepatitis B virus large surface protein: pre-S1 (119 a.a.), pre-S2 (55 a.a.) and S (227 a.a.) regions as printed; also called the full-length; source: 293T cells, transfected, in lysate
T3 sequence (P03141 whole entry): as the sequence (P03141 whole entry, looked up) above

B1: anti-pre-S1 mouse monoclonal antibody (clone N-term-7-21-5) (antibody, V domains shown)
VH: DVQLQESGPGLVKPSQSLSLTCTVTGYSITSDYAWNWIRQFPGNKLEWMGYIRYSGTTNYNPSLKSRISITRDTSKNQFFLQLNSVTTEDTATYYCARGGTGLTYWGQGTLVTVSA
VL: NIVMTQSPKSMSMSLGERVTLTCKASENVGTYVSWYQQKPEQSPKLLIYGASNRNTGVPDRFTGSGPATDFTLTISSVQAEDLADYLCGQTYNYPFTFGAGTKLELK
notes: heavy chain CDR1; heavy chain CDR2; heavy chain CDR3; kappa light chain CDR1; kappa light chain CDR2; kappa light chain CDR3; Only the six CDRs are printed; Coating antibody of the sandwich ELISA; also called pre-S1 antibody; LHBS-specific antibody; source: mouse hybridoma, ascites fluid, purified using IgG beads
B1: binds [1]; binds [2].

B2: anti-pre-S2 mouse monoclonal antibody (antibody, V domains shown)
VH: QVQLQQPGTELVKPGTSVKLSCKASGYTFTSYWMHWVKLRPGQGFEWIGEINPSNGITNYNEKFKRKATLTVDKSSTTAYMQLSSLTFEDSAVYYCTIGYDYGSNYEAMDFWGQGTSVTVSS
VL: DIVMTQAAFSNPVTLGTSASMSCRSSKSLLHSNGITYLYWYLQKPGQSPQLLIYQMSNLASGVPDRFSSGGSGTDFTLRISRVEAEDVGVYYCAQNLELPWTFGGGTKLEIK
notes: heavy chain CDR1; heavy chain CDR2; heavy chain CDR3; kappa light chain CDR1; kappa light chain CDR2; kappa light chain CDR3; Only the six CDRs are printed; Aliquots were conjugated with biotin for use as detection antibody in the sandwich ELISA; also called pre-S2 antibody; anti-pre-S2 region antibody; source: mouse hybridoma, ascites fluid, purified using IgG beads
B2: binds [3]; binds [1].
